# B1: Comparator 3 (antibody, from another filing, V domains shown)
# VH: EVQLVQSGAEVKKPGASVKVSCKVSGYTFTDYYMHWVQQAPGKGLEWMGLVDPEDGETIYAEKFQGRVTITADTSTDTAYMELSSLRSEDTAVYYCARDDYMDVWGKGTLVTVSS
# VL: ETTLTQSPDTLSLSPGEGATLSCRASQSVSGSALAWYQQKPGQAPRLLIYDASSRATGVPDRFSGSGSGADFSLTISRLEPEDFAVYSCQQYGSSPLTFGPGTKVDVKR
# B2: H1H8900P (antibody, V domains shown)
# VH: QVQLVESGGGVVQPGRSLRLSCVASGFTFSSYGMHWVRQAPGKGLEWVAVISFDGSNKYYADSVKGRFTISRDNSKNTLYLQMNSLRPADTAVYYCAKDRSNYYYFGMDVWGQGTTVTVSS
# VL: DIVMTQTPLSLPVTPGEPASISCRSSQSLLDSDDGNTYLDWYLQKPGQSPQLLIYTLSYRASGVPDRFSGSGSGTDFTLKISRVEAEDVGVYYCMQRIEFPLTFGGGTKVEIK
# Experiments:
# [1] = target: extracellular domain of human FGFR1c expressed with C-terminal V5 and hexahistidine tags (human) (UniProt P11362); experiment: SPR, mAb captured, 37 C
# [2] = target: extracellular domain of human KLB expressed with C-terminal HA and hexahistidine tags (human) (UniProt Q86Z14); experiment: SPR, mAb captured, 37 C
# [3] = target: full-length human KLB on HEK293/hKLB/SRE-luc cells (human) (UniProt Q86Z14); experiment: FACS on stable HEK293 cells
# [4] = target: human KLB and human FGFR1c co-expressed on HEK293/hKLB/hFGFR1c/SRE-luc cells (human) (UniProt Q86Z14); experiment: FACS on stable HEK293 cells
# [5] = target: full-length human FGFR1c on HEK293/hFGFR1c/SRE-luc cells (human) (UniProt P11362); experiment: FACS on stable HEK293 cells
# [6] = target: extracellular domain of human FGFR1c expressed with C-terminal V5 and hexahistidine tags (human) (UniProt P11362); experiment: SPR, mAb captured, 25 C
# [7] = target: extracellular domain of human KLB expressed with C-terminal HA and hexahistidine tags (human) (UniProt Q86Z14); experiment: SPR, mAb captured, 25 C
# [8] = target: mouse KLB and mouse FGFR1c co-expressed on HEK293/mKLB/mFGFR1c/SRE-Luc cells (mouse); experiment: FACS on stable HEK293 cells, 965 nM
# [9] = target: mouse KLB and mouse FGFR1c co-expressed on HEK293/mKLB/mFGFR1c/SRE-Luc cells (mouse); experiment: FACS on stable HEK293 cells, 33 nM
# Sequence of extracellular domain of human FGFR1c expressed with C-terminal V5 and hexahistidine tags (human) (P11362 other isoform, or with tags, fused parts or gaps limits assumed): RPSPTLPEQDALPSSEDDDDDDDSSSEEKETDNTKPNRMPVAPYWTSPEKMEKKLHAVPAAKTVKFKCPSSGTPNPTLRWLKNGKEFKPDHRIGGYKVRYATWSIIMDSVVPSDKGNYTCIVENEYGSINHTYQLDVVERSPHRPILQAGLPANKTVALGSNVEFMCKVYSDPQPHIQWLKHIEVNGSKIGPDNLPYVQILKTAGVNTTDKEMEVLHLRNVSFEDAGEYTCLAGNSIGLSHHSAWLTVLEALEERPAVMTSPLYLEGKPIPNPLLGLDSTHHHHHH
# Sequence of extracellular domain of human KLB expressed with C-terminal HA and hexahistidine tags (human) (Q86Z14 1-996 limits assumed): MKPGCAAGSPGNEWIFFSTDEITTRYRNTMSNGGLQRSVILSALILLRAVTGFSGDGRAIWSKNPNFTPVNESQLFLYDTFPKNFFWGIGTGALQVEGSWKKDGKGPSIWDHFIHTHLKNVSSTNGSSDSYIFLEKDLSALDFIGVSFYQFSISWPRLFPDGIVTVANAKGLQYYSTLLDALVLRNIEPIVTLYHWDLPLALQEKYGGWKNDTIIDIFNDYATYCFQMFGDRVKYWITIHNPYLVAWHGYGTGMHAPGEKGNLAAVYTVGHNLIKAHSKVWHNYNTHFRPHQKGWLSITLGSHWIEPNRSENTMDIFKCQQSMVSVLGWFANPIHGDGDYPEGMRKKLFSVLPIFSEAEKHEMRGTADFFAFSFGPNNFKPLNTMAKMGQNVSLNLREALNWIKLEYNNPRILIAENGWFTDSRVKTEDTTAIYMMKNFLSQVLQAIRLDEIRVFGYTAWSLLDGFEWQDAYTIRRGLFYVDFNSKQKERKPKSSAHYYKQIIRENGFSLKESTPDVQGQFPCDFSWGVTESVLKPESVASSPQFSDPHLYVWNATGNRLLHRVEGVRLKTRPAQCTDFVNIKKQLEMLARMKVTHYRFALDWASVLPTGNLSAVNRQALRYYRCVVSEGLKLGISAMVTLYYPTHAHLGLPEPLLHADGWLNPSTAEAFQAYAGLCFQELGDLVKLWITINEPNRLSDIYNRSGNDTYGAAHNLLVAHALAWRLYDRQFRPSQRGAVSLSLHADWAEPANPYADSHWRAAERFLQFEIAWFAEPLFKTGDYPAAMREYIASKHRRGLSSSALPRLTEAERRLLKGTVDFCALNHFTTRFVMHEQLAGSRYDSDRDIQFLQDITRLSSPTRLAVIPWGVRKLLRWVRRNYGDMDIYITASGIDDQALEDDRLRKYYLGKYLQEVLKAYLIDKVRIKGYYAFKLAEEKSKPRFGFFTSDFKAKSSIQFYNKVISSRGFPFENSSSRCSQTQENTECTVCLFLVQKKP
# Sequence of human KLB and human FGFR1c co-expressed on HEK293/hKLB/hFGFR1c/SRE-luc cells (human) (Q86Z14 whole entry, chain 1 of 2): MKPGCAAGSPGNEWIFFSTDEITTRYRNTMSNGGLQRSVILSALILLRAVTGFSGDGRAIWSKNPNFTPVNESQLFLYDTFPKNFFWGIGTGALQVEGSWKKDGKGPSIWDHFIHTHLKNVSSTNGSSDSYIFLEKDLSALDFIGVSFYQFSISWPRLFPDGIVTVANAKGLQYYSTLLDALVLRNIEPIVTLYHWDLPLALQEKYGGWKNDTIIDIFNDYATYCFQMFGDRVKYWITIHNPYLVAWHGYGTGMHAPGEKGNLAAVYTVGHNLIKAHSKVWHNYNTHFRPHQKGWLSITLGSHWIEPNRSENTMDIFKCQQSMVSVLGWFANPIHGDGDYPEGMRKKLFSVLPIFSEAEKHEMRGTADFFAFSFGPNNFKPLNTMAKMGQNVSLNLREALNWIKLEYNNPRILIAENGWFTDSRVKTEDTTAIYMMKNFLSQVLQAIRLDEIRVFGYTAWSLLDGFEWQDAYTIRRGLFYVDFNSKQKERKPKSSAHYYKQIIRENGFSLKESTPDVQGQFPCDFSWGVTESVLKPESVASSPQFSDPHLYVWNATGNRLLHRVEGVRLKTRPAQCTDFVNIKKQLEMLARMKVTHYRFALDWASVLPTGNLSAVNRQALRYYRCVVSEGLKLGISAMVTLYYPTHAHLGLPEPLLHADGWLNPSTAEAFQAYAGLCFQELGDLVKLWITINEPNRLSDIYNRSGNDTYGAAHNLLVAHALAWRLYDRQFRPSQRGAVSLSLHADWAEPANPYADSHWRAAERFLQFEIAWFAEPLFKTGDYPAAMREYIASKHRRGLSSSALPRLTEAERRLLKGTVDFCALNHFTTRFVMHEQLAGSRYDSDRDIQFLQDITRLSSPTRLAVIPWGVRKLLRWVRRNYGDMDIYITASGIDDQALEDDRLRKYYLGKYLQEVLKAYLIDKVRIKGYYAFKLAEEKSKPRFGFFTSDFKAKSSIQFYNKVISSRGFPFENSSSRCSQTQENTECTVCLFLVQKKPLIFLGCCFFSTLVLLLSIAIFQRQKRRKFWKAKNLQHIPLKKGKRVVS
# Sequence of human KLB and human FGFR1c co-expressed on HEK293/hKLB/hFGFR1c/SRE-luc cells (human) (chain, as listed by the source limits assumed, chain 2 of 2): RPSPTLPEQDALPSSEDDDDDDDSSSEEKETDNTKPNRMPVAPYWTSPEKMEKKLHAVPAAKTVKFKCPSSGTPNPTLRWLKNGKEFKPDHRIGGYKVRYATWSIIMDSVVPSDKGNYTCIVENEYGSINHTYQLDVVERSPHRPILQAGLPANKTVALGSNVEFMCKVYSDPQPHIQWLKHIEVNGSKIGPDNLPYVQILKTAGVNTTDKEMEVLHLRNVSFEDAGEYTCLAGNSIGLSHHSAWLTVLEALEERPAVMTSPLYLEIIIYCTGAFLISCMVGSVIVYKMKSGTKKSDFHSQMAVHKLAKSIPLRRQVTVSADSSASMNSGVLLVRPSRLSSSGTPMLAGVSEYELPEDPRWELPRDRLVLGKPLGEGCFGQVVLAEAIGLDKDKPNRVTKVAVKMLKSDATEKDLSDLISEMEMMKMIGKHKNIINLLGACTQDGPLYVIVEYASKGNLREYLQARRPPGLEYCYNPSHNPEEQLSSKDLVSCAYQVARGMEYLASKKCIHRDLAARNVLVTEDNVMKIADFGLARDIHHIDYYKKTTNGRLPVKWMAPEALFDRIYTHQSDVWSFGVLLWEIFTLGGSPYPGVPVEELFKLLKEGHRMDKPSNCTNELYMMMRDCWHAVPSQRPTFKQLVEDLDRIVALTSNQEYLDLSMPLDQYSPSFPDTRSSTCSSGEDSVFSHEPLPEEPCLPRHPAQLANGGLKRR
# Sequence of full-length human KLB on HEK293/hKLB/SRE-luc cells (human) (Q86Z14 whole entry): as the sequence (Q86Z14 whole entry, chain 1 of 2) above
# Sequence of full-length human FGFR1c on HEK293/hFGFR1c/SRE-luc cells (human) (P11362 other isoform, or with tags, fused parts or gaps limits assumed): as the sequence (chain, as listed by the source limits assumed, chain 2 of 2) above
Binder,180 nM hFGFR1c-V5-6His Bind (RU) [1],Kd [1],koff [1],kon [1],t1/2 [1],20 nM hKLB-HA-6His Bind (RU) [2],binding ratio to unstained cells [3],binding ratio to unstained cells [4],binding ratio to unstained cells [5],180 nM hFGFR1c-V5-6His Bind (RU) [6],Kd [6],koff [6],kon [6],t1/2 [6],20 nM hKLB-HA-6His Bind (RU) [7],MFI Ratio to unstained cells [8],MFI Ratio to unstained cells [9]
B1,88.8 RU,8.76 nM,0.0208 s⁻¹,2.37e+06 M⁻¹ s⁻¹,36 s,-1 RU,2 fold,33 fold,27 fold,16.4 RU,4.12 nM,0.0129 s⁻¹,3.13e+06 M⁻¹ s⁻¹,54 s,-1.1 RU,,
B2,,,,,,,,,,,,,,,,2 fold,1 fold
